Data on two molecules can be found in patent publication US20120282646A1 (KOREA RESEARCH INSTITUTE OF BIOSCIENCE AND BIOTECHNOLOGY, published 2012).

Assay [1] deals with T1, Flag-Pyk2 (proline-rich tyrosine kinase 2 with N-terminal Flag tag, expressed from pFlag-Pyk2) (UniProt Q14289 1-1009).
T1 construct: Overexpressed in cells; not shown: N-terminal Flag tag from the pBICEP-CMV-1 vector
As to the kind of experiment: anti-Flag immunoprecipitation from NK-92 lysate, Western blot with anti-GST. An excerpt:
(§1) From Example <12-4>, it was confirmed that phosphorylated Pyk2 and SOCS2 bind each other. To determine whether phosphorylation of Pyk2 is important in the binding with SOCS2 or not, the present inventors carried out the following experiment. First of all, HA-ubiquitin, pGST-SOCS2, and, pFlag-Pyk2 or pFlag-Pyk2-Y402F were cotransformed into NK-92 cells using Lipofectamin 2000. After 4 hr of transformation, the medium was replaced to a new culture medium, and 24 hr later, cells were lysed. The each cell lysate was allowed to react with anti-Flag antibody. The antigen-antibody complexes were precipitated by incubation at 4° C. for 1 day with G-protein-conjugated agarose. The immunoprecipitated complexes were washed with 1×PBS. Western blot analysis was performed by the same method in Example <2-1> using anti-p-Pyk2^Tyr402 antibody, anti-GST antibody, anti-Flag antibody or anti-HA antibody.

The target in assay [2] is T2, Flag-Pyk2-Y402F (mutant Pyk2 in which tyrosine 402 had been mutated to phenylalanine, N-terminal Flag tag) (UniProt Q14289 1-1009).
T2 construct: Made from pFlag-Pyk2 by site-directed mutagenesis; also called pFlag-Pyk2-Y402F; not shown: N-terminal Flag tag from the pBICEP-CMV-1 vector
T2 sequence (Q14289 whole entry Y402F): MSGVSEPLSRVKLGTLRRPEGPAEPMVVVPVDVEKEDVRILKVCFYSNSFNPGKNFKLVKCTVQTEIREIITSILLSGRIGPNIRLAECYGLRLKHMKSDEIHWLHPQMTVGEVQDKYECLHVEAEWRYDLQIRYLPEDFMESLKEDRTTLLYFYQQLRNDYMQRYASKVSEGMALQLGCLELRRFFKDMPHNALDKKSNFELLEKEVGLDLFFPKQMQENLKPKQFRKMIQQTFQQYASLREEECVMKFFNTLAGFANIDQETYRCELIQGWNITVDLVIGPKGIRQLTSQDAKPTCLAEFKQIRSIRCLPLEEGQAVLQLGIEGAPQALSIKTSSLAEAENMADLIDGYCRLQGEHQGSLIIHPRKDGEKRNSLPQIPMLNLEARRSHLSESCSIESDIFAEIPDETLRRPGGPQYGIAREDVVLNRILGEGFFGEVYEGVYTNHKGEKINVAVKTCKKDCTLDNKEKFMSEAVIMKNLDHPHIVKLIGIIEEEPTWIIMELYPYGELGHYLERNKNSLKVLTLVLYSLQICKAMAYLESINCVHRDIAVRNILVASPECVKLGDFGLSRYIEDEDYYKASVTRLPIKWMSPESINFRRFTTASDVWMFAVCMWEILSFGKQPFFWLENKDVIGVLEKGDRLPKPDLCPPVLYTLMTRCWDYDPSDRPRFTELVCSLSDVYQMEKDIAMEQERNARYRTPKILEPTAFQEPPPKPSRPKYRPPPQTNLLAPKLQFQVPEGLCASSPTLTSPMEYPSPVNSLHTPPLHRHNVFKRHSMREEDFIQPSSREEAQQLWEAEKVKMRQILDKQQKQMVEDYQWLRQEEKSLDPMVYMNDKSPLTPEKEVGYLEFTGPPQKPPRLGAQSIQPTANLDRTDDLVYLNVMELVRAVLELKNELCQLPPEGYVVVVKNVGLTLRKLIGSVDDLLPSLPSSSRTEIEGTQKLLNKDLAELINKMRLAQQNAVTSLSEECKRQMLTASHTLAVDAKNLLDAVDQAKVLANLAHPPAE
Described as above.
Text: as §1

For assay [3], the target named is T1, Flag-Pyk2 (proline-rich tyrosine kinase …). As to the kind of experiment: anti-Flag immunoprecipitation from 293T lysate, Western blot with anti-GST. An excerpt: To determine a SOCS2 domain which is important in the binding with Pyk2, the present inventors carried out the following experiment. HA-Ubiquitin, pFlag-Pyk2, and, GST expression vector, pGST-SOCS2, pGST-SOCS2-ΔSH2 or pGST-SOCS2-ΔSOCS were cotransformed into 293T cells using Lipofectamin 2000. After 4 hr of transformation, the medium was replaced to a new culture medium, and 24 hr later, cells were lysed. The each cell lysate was allowed to react with anti-Flag antibody. The antigen-antibody complexes were precipitated by incubation at 4° C. for 1 day with G-protein-conjugated agarose. The immunoprecipitated complexes were washed with 1×PBS. Western blot analysis was performed by the same method in Example <2-1> using anti-GST antibody, anti-Flag antibody, or anti-HA antibody (Santa Cruz, U.S.A.).

T1 sequence (Q14289 whole entry): as the sequence (Q14289 whole entry Y402F) above, with F402Y counted along it

B1: GST-SOCS2 (SOCS2, suppressor of cytokine signaling 2, with N-terminal GST tag, expressed from pGST-SOCS2) (other, UniProt O14508 1-198, looked up)
chain: MTLRCLEPSGNGGEGTRSQWGTAGSAEEPSPQAARLAKALRELGQTGWYWGSMTVNEAKEKLKEAPEGTFLIRDSSHSDYLLTISVKTSAGPTNLRIEYQDGKFRLDSIICVKSKLKQFDSVVHLIDYYVQMCKDKRTGPEAPRNGTVHLYLTKPLYTSAPSLQHLCRLTINKCTGAIWGLPLPTRLKDYLEEYKFQV
notes: Overexpressed in 293T or NK-92 cells and tested in cell lysate; not shown: N-terminal GST tag from the pEBG vector
Regarding B1, the binding result was “binds” in assay [1] and “no binding” in assay [2].

B2: GST-SOCS2-ΔSH2 (mutant SOCS2 in which the SH2 domain was deleted, N-terminal GST tag) (other)
chain: MTLRCLEPSGNGGEGTRSQWGTAGSAEEPSPQAARLAKALRELGQ
notes: also called pGST-SOCS2-ΔSH2; not shown: N-terminal GST tag of the pEBG vector and the junction to it
Consider B2, for which, in assay [3], the binding result is given as “no binding”.
